Values quoted from earlier work in patent US7833964B2, “Methods of reducing visceral fat by increasing levels of insulin-like growth factor-I (IGF-I)” (Tercica, Inc., priority 2003, dated 2010).

Key:
[1] = molecular target: T1, placental insulin receptor (Homo sapiens, UniProt P06213); conditions: relative to the comparator named in the value; cited from earlier work
T1 construct: the placental insulin receptor; host or cells: placenta (endogenous receptor)

Type 2 IGF receptor = conditions: relative to human IGF-I; cited from earlier work
[2] = molecular target: T2, human placental Type I IGF receptor (Homo sapiens, UniProt P08069); conditions: relative to the comparator named in the value; cited from earlier work
T2 construct: the human placental Type I IGF receptor; host or cells: human placenta (endogenous receptor)

[3] = system: Type I IGF receptor of rat and mouse cells; conditions: relative to IGF-I; cited from earlier work

Row | Substance | affinity to the insulin receptor [1] | affinity to the Type 2 IGF receptor (Type 2 IGF receptor) | affinity to the Type I IGF receptor [2] | affinity to the Type I IGF receptor of rat and mouse cells [3]
1 | (Phe^23, Phe^24, Tyr^25)IGF-I: functional mutant of IGF-I described in Cascieri et al. 1988 | equipotent to human IGF-I | equipotent to human IGF-I | equipotent to human IGF-I | 
2 | (Ser^24)IGF-I: functional mutant of IGF-I described in Cascieri et al. 1988 | lower affinity than IGF-I |  | lower affinity than IGF-I | lower affinity than IGF-I
3 | (Leu^24)IGF-I: functional mutant of IGF-I described in Cascieri et al. 1988 | lower affinity than IGF-I |  | lower affinity than IGF-I | lower affinity than IGF-I
